The values that follow come from patent US20260193326A1 (published 2026).

Common to all, as to assay: SPR, AAV on CM5 chip;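 further: surface plasmon resonance with AAV amine-coupled to the chip as ligand, nanobodies injected as analyte over a concentration series, rate constants and affinity fitted from binding curves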
The target in test [1] is T1, AAV9.
T1 construct: also called adeno-associated virus serotype 9
Procedure: (§1) AAV was amine-coupled to a CM5 sensor chip at a density of 500-800 response units (RU). Nanobodies were injected at seven concentrations (1-100 nM) with a flow rate of 45 μL/min, and chip regeneration was performed using glycine-HCl (pH 1.5). Binding curves at different nanobody concentrations were used to calculate kinetic parameters (Kₐ, Kd, KD) (Table 2 and FIG. 2).

Test [2] addresses T2, AAV8.
T2 construct: also called adeno-associated virus serotype 8
Procedure: as §1

Test [3] deals with T3, AAV5.
T3 construct: also called adeno-associated virus serotype 5
Procedure: as §1

B1: A4-047 (VHH)
VHH: VQLQESGGGLVQPGGSLRLSCAASGSRFSINTMGWYRQAPGKQRELVATVTRGGSTNYAGSVKGRFTISRDNAKNTVYLQMNSLRPEDTAVYYCHVDEVRQSSWTTSNLWGQGTQVTVSS
B1: in test [1], binding was characterised by a dissociation constant (Kd) of 29.1 nM; the koff (usually the first-order rate constant of dissociation) is 0.00147 s⁻¹; the kon – broadly, a measure of how fast the partners come together – amounted to 50500 M⁻¹ s⁻¹. In test [2], the Kd (commonly the equilibrium constant for the complex coming apart) worked out at 0.104 nM, the koff was 2e-05 s⁻¹ and the kon was determined as 193000 M⁻¹ s⁻¹. In test [3], this molecule showed a Kd of 7.79 nM, a dissociation rate constant (koff) of 0.00144 s⁻¹ and a kon of 185000 M⁻¹ s⁻¹.

B2: A4-013 (VHH)
VHH: VQLQESGGGLVQPGGSLRLSCAASGSRFSINSMGWYRQAPGKQRELVATVTRGGNTNYADSVKGRFTISRDNAKNTVYLQMNSLRPEDTAVYYCHVDEVRESSWTTSNLWGQGTQVTVSS
In test [1], B2 displayed a Kd of 480 nM, an off-rate constant (koff) of 0.0379 s⁻¹ and a kon of 79100 M⁻¹ s⁻¹. In test [2], this molecule gave a Kd of 1220 nM, a koff of 0.00737 s⁻¹ and an on-rate (kon) of 6060 M⁻¹ s⁻¹. Moreover, in test [3], the dissociation constant Kd was found to be 7.24 nM, the off-rate constant (koff) is 0.00011 s⁻¹ and the on-rate constant (kon) is 15200 M⁻¹ s⁻¹.

B3: A4-002 (VHH)
VHH: VQLQESGGGLVQPGGSLRLSCAASGRSFSINTMGWYRQAPGKQRELVAAVTRGGSTNYAGSVKGRFTISRDNAKNTVYLQMNSLRPEDTAVYYCHIDEVRQSSWTTSNIWGQGTQVTVSS
Take B3: in test [1], the Kd amounted to 232 nM, the koff was determined as 0.011 s⁻¹ and the on-rate (kon) turned out to be 47500 M⁻¹ s⁻¹. In addition, in test [2], the dissociation constant (Kd) amounted to 57.7 nM, the koff was 0.00618 s⁻¹ and the on-rate (kon) is 107000 M⁻¹ s⁻¹. Moreover, in test [3], the Kd stood at 138 nM, the off-rate constant (koff) amounted to 0.00063 s⁻¹ and the association rate constant (kon) worked out at 4570 M⁻¹ s⁻¹.

B4: A4-006 (VHH)
VHH: VQLQESGGGLVQPGGSLRLSCAASGRHFSINTMGWYRQAPGKQRELVAAVTRGGSTNYAGSVKGRFTISRDNAKNTVYLQMNSLRPEDTAVYYCHIDEVRQSSWTTSNIWGQGTQVTVSS
In test [1], B4 returned a dissociation constant Kd of 192 nM, a koff of 0.0244 s⁻¹ and a kon of 127000 M⁻¹ s⁻¹. Further, in test [2], the Kd is 5.87 nM, the off-rate constant (koff) was found to be 0.00224 s⁻¹ and the kon was found to be 381000 M⁻¹ s⁻¹. In test [3], this molecule returned a dissociation constant Kd of 1.78 nM, a koff of 0.00032 s⁻¹ and a kon of 179000 M⁻¹ s⁻¹.

B5: A4-007 (VHH)
VHH: VQLQESGGGLVQAGGSLRLSCAASGRHFSINTMGWYRQAPGKQRELVAAVTRGGSTNYAGSVKGRFTISRDNAKNTVYLQMNSLRPEDTAVYYCHIDEVRQSSWTTSNIWGQGTQVTVSS
For B5, the Kd in test [1] was determined as 6.43 nM; in test [2], 47.4 nM; in test [3], 1260 nM. The koff in test [1] stood at 0.00089 s⁻¹; in test [2], 0.00367 s⁻¹; in test [3], 0.0248 s⁻¹. In addition, the kon in test [1] was 138000 M⁻¹ s⁻¹; in test [2] it was 77300 M⁻¹ s⁻¹; in test [3], 19700 M⁻¹ s⁻¹.

B6: A4-008 (VHH)
VHH: VQLQESGGGLVQAGGSLRLSCAASGRAFSINTMGWYRQAPPKQRELVATVTRGGSTNYAGSVKGRFTISRDNAKNTIYLQMNSLRPEDTAVYYCHVDEVRQSSWTTSNIWGQGTQVTVSS
With B6, in test [1], the affinity, expressed as Kd, was 14.5 nM; the dissociation rate constant (koff) is 0.00012 s⁻¹; the kon is 8270 M⁻¹ s⁻¹. Moreover, in test [2], the Kd was 523 nM, the off-rate constant (koff) was 0.00164 s⁻¹ and the kon came to 3140 M⁻¹ s⁻¹. In test [3], this molecule registered an equilibrium dissociation constant (Kd) of 66 nM, a koff of 0.0174 s⁻¹ and a kon of 264000 M⁻¹ s⁻¹.

B7: A4-010 (VHH)
VHH: VQLQESGGGLVQAGGSLRLSCAASGSIFSINSMGWYRQAPGKQRELVATVTRGGNTNYADSVKGRFTISRDNAKNTVYLQMNSLRPEDTAVYYCHVDEVRESSWTTSNLWGQGTQVTVSS
On to B7, for which, in test [1], the equilibrium dissociation constant (Kd) was 380 nM, the koff was 0.0329 s⁻¹ and the kon worked out at 86600 M⁻¹ s⁻¹. For the same molecule, in test [2], the dissociation constant Kd came out at 169 nM, the off-rate (koff) came out at 0.00249 s⁻¹ and the on-rate constant (kon) was found to be 14700 M⁻¹ s⁻¹. Also, in test [3], the Kd amounted to 267 nM, the koff turned out to be 0.00038 s⁻¹ and the kon was determined as 1420 M⁻¹ s⁻¹.

B8: A4-004 (VHH)
VHH: VQLQESGGGLVQPGGSLRLSCAASGSRFSINTMGWYRQAPGKQRELVAAVTRGGSTNYAGSVKGRFTISRDNAKNTVYLQMNSLRPEDTAVYYCHIDEVRQSSWTTSNIWGQGTQVTVSS
B8: in test [1], the Kd stood at 4.51 nM, the koff was 0.00081 s⁻¹ and the kon came to 180000 M⁻¹ s⁻¹. In test [2], this molecule returned a Kd of 1.71 nM, an off-rate (koff) of 0.000286 s⁻¹ and a kon of 167000 M⁻¹ s⁻¹. Besides, in test [3], the affinity, expressed as Kd, was 37.5 nM; the off-rate (koff) stood at 0.00678 s⁻¹; the kon was determined as 181000 M⁻¹ s⁻¹.

B9: A4-005 (VHH)
VHH: VQLQESGGGLVQAGGSLRLSCAASGRHFSINTMGWYRQAPGKQRELVAAVTRGGGTNYAGSVKGRFTISRDNAKNTVYLQMNSLRPEDTAVYYCHIDEVRQSSWTTSNIWGQGTQVTVSS
As for B9, the Kd in test [1] came out at 88.5 nM; in test [2], 4.39 nM; in test [3], 1860 nM. For the same molecule, the koff in test [1] was found to be 0.021 s⁻¹; in test [2] it was 0.00197 s⁻¹; in test [3] it was 0.00193 s⁻¹. In addition, the on-rate (kon) came to 237000 M⁻¹ s⁻¹ in test [1] and 449000 M⁻¹ s⁻¹ in test [2].

B10: A4-003 (VHH)
VHH: VQLQESGGGLVQPGGSLRLSCVASGRSFSINTMGWYRQAPGKQRELVAAVTRGGSTNYAGSVKGRFTISRDNAKNTVYLQMNSLRPEDTAVYYCHIDEVRQSSWTTSNIWGQGTQVTVSS
In test [1], B10 registered a Kd of 184 nM, an off-rate constant (koff) of 0.00152 s⁻¹ and a kon of 8240 M⁻¹ s⁻¹. In test [2], this molecule came in with a Kd of 1.2 nM, an off-rate (koff) of 0.000277 s⁻¹ and an on-rate (kon) of 232000 M⁻¹ s⁻¹. In test [3], the affinity, expressed as Kd, was 8.24 nM; the koff is 0.00019 s⁻¹; the kon was found to be 23100 M⁻¹ s⁻¹.

B11: A4-014 (VHH)
VHH: VQLQESGGGLVQPGGSLRLSCAASGSRFSINSMGWYRQAPGKQRELVATVTRGGNTNYAGSVKGRFTISRDNAKNTVYLQMNSLRPEDTAVYYCHVDEVRESSWTTSNLWGQGTQVTVSS
Turning to B11, in test [1], binding was characterised by a dissociation constant (Kd) of 13.3 nM, the off-rate constant (koff) was determined as 0.00085 s⁻¹ and the on-rate constant (kon) is 64000 M⁻¹ s⁻¹. Also, in test [2], the affinity, expressed as Kd, was 384 nM; the off-rate (koff) was 0.00109 s⁻¹; the kon stood at 2840 M⁻¹ s⁻¹. In test [3], this molecule came in with an equilibrium dissociation constant (Kd) of 597 nM, an off-rate (koff) of 0.00529 s⁻¹ and a kon of 8860 M⁻¹ s⁻¹.

B12: A4-009 (VHH)
VHH: VQLQESGGGLAQPGGSLRLSCAASGSRFSINTMGWYRQAPGKQREFVAAVTRGGSTNYAGSVKGRFTISRDNAKNTVYLQMNTLRPEDTAVYYCHVDEVRQSSWTTSNIWGQGTQVTVSS
With B12, the Kd in test [1] was 100 nM; in test [2] it was 103 nM; in test [3], 141 nM. Further, the values for the koff in test [1], in test [2] and in test [3] were 0.0139 s⁻¹, 0.00219 s⁻¹ and 0.00698 s⁻¹, respectively. The on-rate constant (kon) in test [1] is 139000 M⁻¹ s⁻¹; in test [2], 21400 M⁻¹ s⁻¹; in test [3], 49700 M⁻¹ s⁻¹.
